Measurements reported in publication PMC9541495, “Understanding the interaction of 14‐3‐3 proteins with hDMX and hDM2: a structural and biophysical study” (The Febs Journal, 2022).
[ ]: non-standard residue; d: D form. pS = N[C@@H](COP(=O)(O)O)C(=O)O; FAM = 5,6-carboxyfluorescein; Ahx = NCCCCCC(=O)O

T1: 14‐3‐3β (human, UniProt P31946 1-246)
T1 construct: 14-3-3 beta, human, full-length protein from the pProEx HTb-His-14-3-3 construct; Written as the protomer; tag removal is told only for the ∆C proteins; source: E. coli BL21(DE3), purified (Ni2+-NTA, dialysis)
T1 sequence (looked up): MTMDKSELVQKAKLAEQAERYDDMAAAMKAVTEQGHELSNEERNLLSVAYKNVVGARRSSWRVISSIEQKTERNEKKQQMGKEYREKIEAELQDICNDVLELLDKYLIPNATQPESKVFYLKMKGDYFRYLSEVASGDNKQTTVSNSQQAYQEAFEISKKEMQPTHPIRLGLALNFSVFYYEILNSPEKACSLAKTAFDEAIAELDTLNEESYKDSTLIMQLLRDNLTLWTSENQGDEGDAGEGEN

T2: 14‐3‐3γ (human, UniProt P61981 1-247)
T2 construct: 14-3-3 gamma, human, full-length protein from the pProEx HTb-His-14-3-3 construct; Written as the protomer; tag removal is told only for the ∆C proteins; source: E. coli BL21(DE3), purified (Ni2+-NTA, dialysis)
T2 sequence (looked up): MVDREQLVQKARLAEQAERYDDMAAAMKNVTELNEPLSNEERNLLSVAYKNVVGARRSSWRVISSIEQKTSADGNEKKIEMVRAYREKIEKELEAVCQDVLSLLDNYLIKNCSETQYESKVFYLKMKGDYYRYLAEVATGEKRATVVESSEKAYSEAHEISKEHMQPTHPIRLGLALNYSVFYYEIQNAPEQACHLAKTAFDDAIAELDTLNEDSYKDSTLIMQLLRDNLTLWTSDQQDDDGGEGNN

B1: FAM‐Ahx‐hDMX_(335‐349) ^pSer342 (peptide)
peptide: {FAM-Ahx}-SKLTHSL[pS]TSDITAI-NH2
notes: hDMX (human double minute 4 protein, hDM4), human, residues 335-349; Tracer form used in the FA assays; source: synthetic peptide (Fmoc SPPS, HPLC purified)
B2: FAM‐Ahx‐hDMX_(361‐374) ^pSer367 (peptide)
peptide: {FAM-Ahx}-DCRRTI[pS]APVVRPK-NH2
notes: Tracer form used in the FA assays; source: synthetic peptide (Fmoc SPPS, HPLC purified)
B3: FAM‐Ahx‐hDM2_(160‐171) ^pSer166 (peptide)
peptide: {FAM-Ahx}-SRRRAI[pS]ETEEN-NH2
notes: hDM2 (human double minute 2 protein), human, residues 160-171; Tracer form used in the FA assays; also called hDM2_(160‐171) ^Ser166; source: synthetic peptide (Fmoc SPPS, HPLC purified)
B4: FAM‐Ahx‐hDM2_(180‐192) ^pSer186 (peptide)
peptide: {FAM-Ahx}-QRKRHK[pS]DSISLS-NH2
notes: hDM2 (human double minute 2 protein), human, residues 180-192; Tracer form used in the FA assays; source: synthetic peptide (Fmoc SPPS, HPLC purified)

How the values were obtained:
14‐3‐3β = target: T1, 14‐3‐3β; test: fluorescence polarisation; fluorescence anisotropy, direct titration: 14-3-3 protein titrated (1/2 dilution series) against 50 nM FAM-Ahx tracer peptide; 10 mM HEPES, 150 mM NaCl, 0.1% Tween 20, 0.1% BSA, pH 7.4; 384 well plates, triplicates; protein concentration as 14-3-3 monomer; 1:1 fit, biphasic curves fitted as two separate 1:1 events (Kd1, Kd2); details: both partners purified
14‐3‐3γ = target: T2, 14‐3‐3γ; test: as above; details: both partners purified

| Binder | Kd (14‐3‐3β) [µM] | Kd (14‐3‐3γ) [µM] |
| --- | --- | --- |
| B1 | 49.4 ± 11.5 | 37.8 ± 0.7 |
| B2 | 0.51 ± 0.02 | 0.53 ± 0.04 |
| B3 | 11.1 ± 0.5 | 3.9 ± 0.3 |
| B4 | 208 ± 6.3 | 82.9 ± 2.1 |
